Measured values as given in article PMC3244446, “Soluble CD44 Interacts with Intermediate Filament Protein Vimentin on Endothelial Cell Surface” (PLoS ONE, 2011).
“And” between values parts separate entries of the source, which are not always exact repeats. Equal values may be shown once.

Assays:
Details in all cases: both partners purified
[1] = molecular target: T1, recombinant full length human vimentin, His-tagged (human, UniProt P08670 1-466); assay: ITC; 50 mM Tris, 150 mM NaCl, pH 8.0, 25°C; two preparations of CD443MUT (A, B), two pairs of concentrations each; n is vimentin/CD443MUT (mol/mol)
T1 construct: vimentin, human, full length; The oligomeric state in the assays is not measured; the discussion supposes unit-length filaments; also called recombinant vimentin; source: expressed using pET15b vector

[2] = molecular target: T1, recombinant full length human vimentin, …; assay: SPR; Biacore3000; vimentin amine-coupled to CM5 chip; CD443MUT 0.46–123 µM injected; 50 mM Tris, 150 mM NaCl, pH 8.0; parallel two-site binding model and equilibrium analysis (equation 1)
[3] = molecular target: T1, recombinant full length human vimentin, …; assay: as above; remark: listed apart in the source
[4] = molecular target: T1, recombinant full length human vimentin, …; assay: pull-down; GST-CD44HABD or GST-CD443MUT with recombinant vimentin

T1 sequence (P08670 whole entry): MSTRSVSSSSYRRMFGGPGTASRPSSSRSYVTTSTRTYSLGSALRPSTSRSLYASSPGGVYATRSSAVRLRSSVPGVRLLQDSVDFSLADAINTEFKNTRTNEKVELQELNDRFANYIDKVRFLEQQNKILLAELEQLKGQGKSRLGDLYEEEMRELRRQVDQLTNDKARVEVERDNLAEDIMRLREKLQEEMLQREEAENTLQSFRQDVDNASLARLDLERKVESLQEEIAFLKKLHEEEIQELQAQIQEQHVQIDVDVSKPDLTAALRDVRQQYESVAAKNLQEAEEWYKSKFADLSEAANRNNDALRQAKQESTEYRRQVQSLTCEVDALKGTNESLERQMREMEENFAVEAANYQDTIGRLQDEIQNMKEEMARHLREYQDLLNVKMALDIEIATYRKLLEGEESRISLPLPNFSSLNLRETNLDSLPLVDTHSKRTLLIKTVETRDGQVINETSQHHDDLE

B1: CD443MUT (CD44HABD^R41AR78SY79S), recombinant, unlabeled (domain or fragment, human, UniProt P16070 21-132, looked up)
chain: QIDLNITCRFAGVFHVEKNGAYSISRTEAADLCKAFNSTLPTMAQMEKALSIGFETCSSGFIEGHVVIPRIHPNSICAANNTGVYILTSNTSQYDTYCFNASAPPEEDCTSV
notes: Two preparations (A, B) were used in ITC; also called CD44HABD Arg41Ala, Arg78Ser, Tyr79Ser triple mutant; source: expressed using pET11c vector
stoichiometry N [1]: 9.9 mol/mol and 7.2 mol/mol
KD of the low affinity site [2]: 15 µM
KD from equilibrium response values (equation 1) [3]: 15 ± 2 µM
KD of the high-affinity site (Kdiss1/Kass1) [3]: 0.074 µM
stoichiometry N [3]: 6.2 mol/mol

B2: GST-tagged CD44 hyaluronan binding domain 21–132 (CD44HABD) (domain or fragment, human, UniProt P16070 21-132, looked up)
chain: QIDLNITCRFAGVFHVEKNGRYSISRTEAADLCKAFNSTLPTMAQMEKALSIGFETCRYGFIEGHVVIPRIHPNSICAANNTGVYILTSNTSQYDTYCFNASAPPEEDCTSV
notes: also called GST-HABD; CD44 HABD 21–132; source: recombinant GST fusion-protein, purified as described [27]
binding result [4]: binds
